assay: soluble on expression in E. coli; label from the status in PepcDB or PDB records

Sequence	soluble on expression in E. coli
MSTDPEEFDQAETLDQLAYEIILLTRYGVQNTPTNKREAIMDRSALILLTRLDAQGPMTVNELAESFGLNVSTVHRQLKAAIANGLIEVVDDQACPAKLHRPTELGKEKLQQELLARQQDLTRILHDWDEEDIKTHAKLLRKHNESLEEYLDMKWPRP	not soluble
MNNKLKTQAVEQLFQAILSLKDLDEAYDFFEDVCTINEILSLSQRFEVAKMLREHRTYLDIAEKTGASTATISRVNRSLNYGNDGYDRVFERLGMLEKESEDNK	soluble
MIELYSNAKLPTEFGLFRIYTFVNDENKDHAVIVRGDPRGKENVPLRIHSECLTGDVLGSLRCDCRDQLIQSLRYLGRQEYGMLIYLRQEGRGIGLLNKIKAYSLQDMGADTVEANLKLGLPVDSRNYSFAAEVLRYFEIKSIYIMTNNPEKIKSLIESGINVKGRIPIFSDPTPYDKFYLETKKTKLGHEIENILEHHHHHH	soluble
MGSDKIHHHHHHMLSLKNINFKGVKGINELELTLSDNPINVLIGTNGIGKTKALEALYTLLIFTNTAFQKYAMNGKDVVFNECLIANEQVIRIDNTESYTYIKQFFTNNKLSHSYPVIFIAAQNRGKIKSENSNSISPLGNADTRAYNYFRHIIRSMENDFSSLNMDMPIEEWIIQRANSSTSYQDEEDNRELELISLLKILNKIDERISCDKSTLKISGDNQVSILVDGKKTKLSALSSGFASLIKIIQSIIAGYSFFTNSRQIENVEGYVLIDEIESHLHLEWQTKILPILSEVFPYTRFIITTHSSLILSQLYTGSASRLVHEGSKIINEDIPNASNFTLIDLLQEAFDIDLNQIKISSTTAKHQERVKKAILDLLGA	not soluble
MGSDKIHHHHHHMKKIGIIGGGQLGKMMTLEAKKMGFYVIVLDPTPRSPAGQVADEQIVAGFFDSERIEDLVKGSDVTTYDLEHIDVQTLKKLYNEGYKIHPSPYTLEIIQDKFVQKEFLKKNGIPVPEYKLVKDLESDVREFGFPVVQKARKGGYDGRGVFIIKNEKDLENAIKGETYLEEFVEIEKELAVMVARNEKGEIACYPVVEMYFDEDANICDTVIAPARIEEKYSKIAREIATSVVEALEGVGIFGIEMFLTKQGEILVNEIAPRPHNSGHYTIEACVTSQFEQHIRAIMNLPLGSTELLIPAVMVNLLGEEGYYGKPALIGLEEALAIEGLSLHFYGKKETRPYRKMGHFTVVDRDVERALEKALRAKKILKVVSEEGAMCQG	not soluble
KDWSLDVTANISALRNKVKSLGEGVQPIKAEVMMSGSFNDRPTITKPGLPIGTFWGYVVEGFDNDGNFIFQDNNGSVNGVLTGKPDGKIDENDKTDIGNPHPDFTYGLNINVGYKNWDLTAFFQGTQGNDIFALMKYDWYFGGANSATLKDAFYNSWTPQNPNAEAPKLNSKNSSGINSLPSTFYVEDGSYFRCKNLQIGYSFNKKLLQKFHIESFRIYAGVQNLFTITKYPLYDPEVSSNVLFDRGVDGFWQAQESPHEATMNSRVYNLGVNLTF	not soluble
SGLVPRGSHMRLRPLGIEGVWEITPEQRADPRGVFLDWYHVDRFAEAIGRPLRLAQANLSVSVRGVVRGIHFVDVPPGQAKYVTCVRGAVFDVVVDLRVGSPTYGCWEGTRLDDVSRRAVYLSEGIGHGFCAISDEATLCYLSSGTYDPATEHGVHPLDPELAIDWPTGTPLLSPRDQDALLLAEARDAGLLPTYATCQAVTVPSPAPGSVGDPGP	soluble
MAHHHHHHMRRFCTARVSSYVKRAPLLLPRGGRRWRSGAGTTADGGGEKEYIADSFESTAGSNAYAAMELAAEARREIHELWLSAETALEREKRVQQVAALIEKYKLDPSTPREADVSRGLGDAFDRLLLLCLPLGKTDAKGTDNLERLMHLAGRNGRELSVRTIQHLFARTDSFAEALAVFYTMRRCHVAMNMEAYYSMLYSLQRLEEEGWGQHFRNEYEENGAPSEQAMDFIVKGISNALLPENKPWLGRVMFQDRNVPDRRYDTRDFDELDTAWTQRYKSGTPAGAH	not soluble
GSHMTIEQMVDRLLSYPERTKMQILAPIVSGKKGTHAKTLEDIRKQGYVRVRIDREMRELTGDIELEKNKKHSIDVVVDRIIIKDGIAARLADSLETALKLADGKVVVDVIGEGELLFS	soluble
MDYKSKTANDKEISIYYFSATGNSLKLSQDIAAAFGGAGLFRMTPSAGITASDSRIVGFIFPVYMGGLPGIVRRFLESYPFRKGVYYFSIGTYYTYKGCAVSVVDKIMSGKGVRLDYGYNLPTVGNCLKEYEVSSVRRTKILERAELYTSRIIDDLKKGKRKKPFPYCRLSDLLHKGLFNAFFSRSHLNFSLENGCMGCGVCERVCPVNNITLKNGVPRWGTGCEACHACVHWCPRNVIQIGKSKGRLQYHHPAVKRTMLYRVELEHHHHHH	not soluble
MCSLSAIMLLPTKLKPAYSDKRSNSSSSSSLFFNNRRSKKKNQSIVPVARLFGPAIFESSKLKVLFLGVDEKKHPSTLPRTYTLTHSDITAKLTLAISQSINNSQLQGWANRLYRDEVVAEWKKVKGKMSLHVHCHISGGHFLLDLFAKFRYFIFCKELPVVLKAFVHGDGNLLNNYPELQEALVWVYFHSNVNEFNKVECWGPLWEAVSPDGHKTETLPEARCADECSCCFPTVSSIPWSHSLSNEGVNGYSGTQTEGIATPNPEKL	soluble
MGHHHHHHSHMEFPFDVDALFPERITVLDQHLRPPARRPGTTTPARVDLQQQIMTIIDELGKASAKAQNLSAPITSASRMQSNRHVVYILKDSSARPAGKGAIIGFIKVGYKKLFVLDDREAHNEVEPLCILDFYIHESVQRHGHGRELFQYMLQKERVEPHQLAIDRPSQKLLKFLNKHYNLETTVPQVNNFVIFEGFFAHQHRPPAPSLRATRHSRAAAVDPTPAAPARKLPPKRAEGDIKPYSSSDREFLKVAVEPPWPLNRAPRRATPPAHPPPRSSSLGNSPERGPLRPFVPEQELLRSLRLCPPHPTARLLLAADPGGSPAQRRRTR	not soluble
MPNDLPFDLRPSRRTVTMGLAAGVAAALLPWRAQALDTGTARALVVEAVAQVNRTINSGKSEGQMYADFERLFARYADVPAIARTALGVAARSASRQEISAFTQAYQGYIARKYGKRFREFIGSEIKVNDARPMKSAVEVISTAYLRNENPFEVRWHVSDRSGRPAFFNIIIEGVNMLASERAEVGALLDRNRGSIPALTEQLRRASLEHHHHHH	not soluble
MIGIVAAFEKVKIPEMGKSFGTGWLPPLPSLKDYTEESAQIPEMAEKLGIPTSRKETKTLELPVSIDFRNWCSPIEDQMDLGSCTAHAGVGVVEYFERRAFGKHIDGSRFFVYKTTRNLMGVKGDTGAWLRNTMGALALCGVPPEKYFPYTSRKTPGPDGEPTFDDEPSSFVYSLADNFEALNYFCHDPQGMNLPPEDVILSVKKYLAAGIPSMFGFYGFPSFKDTDVKGGIPFPGPDERSIWGHAVVAVGYDDNMKIRNTLSNKETTGAFLIRNSWGTAWGDKGYGWLPYEYALNKFALDFWSLISMKWVETGNFGLELESSRSRARETLSRDMPLPHALEHHHHHH	soluble
PNAIVNRSIPEGVDVFEISGPLFFGAASKFKDAMHVVEKAPSIRILRMRKVMSIDATGLNMLKELFNDCRKSGTTLILSGVHTQPLFAMQQYGLADEIGEENIFGNIDDALDRARSLLGLPVQGRPAGF	not soluble

From the DeepSol protein solubility set
